B1: Anti-sigma-F factor antagonist RsfB (Mycobacterium tuberculosis (strain ATCC 25618 / P9WGE1 (parent)
chain: MSAPDSITVTVADHNGVAVLSIGGEIDLITAAALEEAIGEVVADNPTALVIDLSAVEFLGSVGLKILAATSEKIGQSVKFGVVARGSVTRRPIHLMGLDKTFRLFSTLHDALTGVRGGRIDR
partner: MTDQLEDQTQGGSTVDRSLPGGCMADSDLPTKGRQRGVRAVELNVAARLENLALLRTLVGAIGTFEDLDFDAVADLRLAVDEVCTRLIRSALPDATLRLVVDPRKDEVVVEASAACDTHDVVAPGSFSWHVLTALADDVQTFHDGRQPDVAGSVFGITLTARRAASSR

Variants of: B1
Conditions: with rsbw_myctu rsbW

Row | Variant | effect of a mutation on the interaction
1 | S61A | decreasing interaction

Source: IntAct's records for PubMed 16263329
